Our source for the EC50 and fold increase in affinity against wild-type NTR1 values is PMC10063554.

The target in experiment [1] is evolved PTH1R variant P34_05 (human) (UniProt Q03431). Kind of experiment: AlphaScreen or HTRF; binding of 40 nM M-PTH(1–14) to membrane fractions supplemented with increasing concentrations of mini-Gs; data relative to PTH1R without mini-Gs; EC50 of mini-Gs read through ligand occupancy, apparent. For orientation: Alpha assays give light when donor and acceptor beads are brought close together.

Experiment [2] addresses evolved PTH1R variant P34_13 (human) (UniProt Q03431). Described as above.
For experiment [3], the target named is SNAP-tagged NTR1-R167L (rat) (UniProt P20789). Kind of experiment: AlphaScreen or HTRF; whole HEK293T cells with SNAP-Lumi4-Tb-labelled NTR1; 2 nM HL488-NT(8–13) tracer with a range of unlabeled NT(8–13); 4 h on ice; 20 mM HEPES pH 7.5, 100 mM NaCl, 3 mM MgCl2, 0.02% BSA.
UniProt P20789, sequence (P20789 43-424 R167L): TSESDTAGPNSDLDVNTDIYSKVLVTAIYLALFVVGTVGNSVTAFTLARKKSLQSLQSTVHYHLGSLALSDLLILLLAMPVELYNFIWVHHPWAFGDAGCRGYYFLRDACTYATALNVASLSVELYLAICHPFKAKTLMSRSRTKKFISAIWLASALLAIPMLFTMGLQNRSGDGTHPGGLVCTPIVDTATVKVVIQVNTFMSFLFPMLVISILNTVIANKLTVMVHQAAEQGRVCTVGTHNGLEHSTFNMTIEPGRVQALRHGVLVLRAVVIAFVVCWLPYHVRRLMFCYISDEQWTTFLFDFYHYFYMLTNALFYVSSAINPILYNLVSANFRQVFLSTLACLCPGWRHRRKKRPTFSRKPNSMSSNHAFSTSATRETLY

pEC50: −log10 of the molar value.

Mini-Gs 393: the pEC50 in experiment [1] was 6.55; in experiment [2], 6.42. Neurotensin 8–13 (peptide) registered a fold increase in affinity against wild-type NTR1 in experiment [3] of 3 fold.

The term pEC50 denotes the EC50 on a negative log10 scale, so that one unit is a factor of ten.
